In assay [1] the target is T1, EGFR (form in the assay not stated) (human, UniProt P00533 25-645, limits assumed). The assay can be described thus: ELISA, NEM conjugate 100 nM.
Assay [2] addresses T1, EGFR (form in the assay not stated). The assay can be described thus: ELISA, NEM conjugate 10 nM.
For assay [3] the target is unchanged. Briefly: ELISA, NEM conjugate 500 nM.
For assay [4], the target named is EGFR on cells (A431, NCI-H292, NCI-H322, NCI-H441) (human, UniProt P00533 25-1210). Briefly: cell-based or functional assay.

Some results are limits rather than exact numbers.

B1: P54AR4-83v2 S30C, NEM conjugate (designed binder)
chain: LPAPKNLVVSEVTEDSARLSWDDPWAFYECFLIQYQESEKVGEAIVLTVPGSERSYDLTGLKPGTEYTVSIYGVHNVYKDTNMRGLPLSAIFTT
modifications: NEM on Cys 30
notes: His-tagged
For B1, the “binding ratio vs parent P54AR4-83v2” value worked out at 1.02 ratio in assay [1], 0.9 ratio in assay [2] and 0.9 ratio in assay [3].

B2: P54AR4-83v2 Y28C, NEM conjugate (designed binder)
chain: LPAPKNLVVSEVTEDSARLSWDDPWAFCESFLIQYQESEKVGEAIVLTVPGSERSYDLTGLKPGTEYTVSIYGVHNVYKDTNMRGLPLSAIFTT
modifications: NEM on Cys 28
notes: His-tagged
On to B2, for which the “binding ratio vs parent P54AR4-83v2” value in assay [1] amounted to 0.01 ratio; in assay [2], 0 ratio; in assay [3], 0.09 ratio.

B3: P54AR4-83v2 T48C, NEM conjugate (designed binder)
chain: LPAPKNLVVSEVTEDSARLSWDDPWAFYESFLIQYQESEKVGEAIVLCVPGSERSYDLTGLKPGTEYTVSIYGVHNVYKDTNMRGLPLSAIFTT
modifications: NEM on Cys 48
notes: His-tagged
Take B3: the “binding ratio vs parent P54AR4-83v2” value in assay [1] came out at 1 ratio; in assay [2], 0.88 ratio; in assay [3], 0.93 ratio.

B4: P54AR4-83v2 T93C, NEM conjugate (designed binder)
chain: LPAPKNLVVSEVTEDSARLSWDDPWAFYESFLIQYQESEKVGEAIVLTVPGSERSYDLTGLKPGTEYTVSIYGVHNVYKDTNMRGLPLSAIFCT
modifications: NEM on Cys 93
notes: His-tagged
For the molecule B4, the “binding ratio vs parent P54AR4-83v2” value was 1.05 ratio in assay [1], 0.96 ratio in assay [2] and 1.04 ratio in assay [3].

B5: P54AR4-83v2 V12C, NEM conjugate (designed binder)
chain: LPAPKNLVVSECTEDSARLSWDDPWAFYESFLIQYQESEKVGEAIVLTVPGSERSYDLTGLKPGTEYTVSIYGVHNVYKDTNMRGLPLSAIFTT
modifications: NEM on Cys 12
notes: His-tagged
Turning to B5, the “binding ratio vs parent P54AR4-83v2” value in assay [1] came to 1.06 ratio; in assay [2], 0.87 ratio; in assay [3], 0.93 ratio.

B6: P54AR4-83v2 T81C, NEM conjugate (designed binder)
chain: LPAPKNLVVSEVTEDSARLSWDDPWAFYESFLIQYQESEKVGEAIVLTVPGSERSYDLTGLKPGTEYTVSIYGVHNVYKDCNMRGLPLSAIFTT
modifications: NEM on Cys 81
notes: His-tagged
Turning to B6, the “binding ratio vs parent P54AR4-83v2” value stood at 0.9 ratio in assay [1], 0.5 ratio in assay [2] and 1.02 ratio in assay [3].

B7: P54AR4-83v2 T13C, NEM conjugate (designed binder)
chain: LPAPKNLVVSEVCEDSARLSWDDPWAFYESFLIQYQESEKVGEAIVLTVPGSERSYDLTGLKPGTEYTVSIYGVHNVYKDTNMRGLPLSAIFTT
modifications: NEM on Cys 13
notes: His-tagged
As for B7, the “binding ratio vs parent P54AR4-83v2” value in assay [1] was 1.04 ratio; in assay [2], 0.87 ratio; in assay [3] it was 0.9 ratio.

B8: P54AR4-83v2 S70C, NEM conjugate (designed binder)
chain: LPAPKNLVVSEVTEDSARLSWDDPWAFYESFLIQYQESEKVGEAIVLTVPGSERSYDLTGLKPGTEYTVCIYGVHNVYKDTNMRGLPLSAIFTT
modifications: NEM on Cys 70
notes: His-tagged
As to B8, the entries for the “binding ratio vs parent P54AR4-83v2” value in assay [1], in assay [2] and in assay [3] were 1.01 ratio, 0.86 ratio and 0.93 ratio, respectively.

B9: P54AR4-83v2 V8C, NEM conjugate (designed binder)
chain: LPAPKNLCVSEVTEDSARLSWDDPWAFYESFLIQYQESEKVGEAIVLTVPGSERSYDLTGLKPGTEYTVSIYGVHNVYKDTNMRGLPLSAIFTT
modifications: NEM on Cys 8
notes: His-tagged
As to B9, the “binding ratio vs parent P54AR4-83v2” value in assay [1] is 1.03 ratio; in assay [2], 0.96 ratio; in assay [3], 0.9 ratio.

B10: P54AR4-83v2 V41C, NEM conjugate (designed binder)
chain: LPAPKNLVVSEVTEDSARLSWDDPWAFYESFLIQYQESEKCGEAIVLTVPGSERSYDLTGLKPGTEYTVSIYGVHNVYKDTNMRGLPLSAIFTT
modifications: NEM on Cys 41
notes: His-tagged
As for B10, the “binding ratio vs parent P54AR4-83v2” value in assay [1] was 0.99 ratio; in assay [2], 0.92 ratio; in assay [3], 0.95 ratio.

B11: P54AR4-83v2 V46C, NEM conjugate (designed binder)
chain: LPAPKNLVVSEVTEDSARLSWDDPWAFYESFLIQYQESEKVGEAICLTVPGSERSYDLTGLKPGTEYTVSIYGVHNVYKDTNMRGLPLSAIFTT
modifications: NEM on Cys 46
notes: His-tagged
Turning to B11, the “binding ratio vs parent P54AR4-83v2” value in assay [1] amounted to 1.01 ratio; in assay [2], 0.61 ratio; in assay [3] it was 0.9 ratio.

B12: P54AR4-83v2 V9C, NEM conjugate (designed binder)
chain: LPAPKNLVCSEVTEDSARLSWDDPWAFYESFLIQYQESEKVGEAIVLTVPGSERSYDLTGLKPGTEYTVSIYGVHNVYKDTNMRGLPLSAIFTT
modifications: NEM on Cys 9
notes: His-tagged
Turning to B12, the “binding ratio vs parent P54AR4-83v2” value was 1.03 ratio in assay [1], 0.94 ratio in assay [2] and 0.93 ratio in assay [3].

B13: P54AR4-83v2 Y78C, NEM conjugate (designed binder)
chain: LPAPKNLVVSEVTEDSARLSWDDPWAFYESFLIQYQESEKVGEAIVLTVPGSERSYDLTGLKPGTEYTVSIYGVHNVCKDTNMRGLPLSAIFTT
modifications: NEM on Cys 78
notes: His-tagged
Turning to B13, the “binding ratio vs parent P54AR4-83v2” value in assay [1] was found to be 0.63 ratio; in assay [2] it was 0.31 ratio; in assay [3] it was 0.68 ratio.

B14: P54AR4-83v2 T68C, NEM conjugate (designed binder)
chain: LPAPKNLVVSEVTEDSARLSWDDPWAFYESFLIQYQESEKVGEAIVLTVPGSERSYDLTGLKPGTEYCVSIYGVHNVYKDTNMRGLPLSAIFTT
modifications: NEM on Cys 68
notes: His-tagged
B14: the “binding ratio vs parent P54AR4-83v2” value was found to be 1.04 ratio in assay [1], 0.83 ratio in assay [2] and 0.95 ratio in assay [3].

B15: P54AR4-83v2 S89C, NEM conjugate (designed binder)
chain: LPAPKNLVVSEVTEDSARLSWDDPWAFYESFLIQYQESEKVGEAIVLTVPGSERSYDLTGLKPGTEYTVSIYGVHNVYKDTNMRGLPLCAIFTT
modifications: NEM on Cys 89
notes: His-tagged
For the molecule B15, the “binding ratio vs parent P54AR4-83v2” value in assay [1] amounted to 1.02 ratio; in assay [2] it was 0.97 ratio; in assay [3] it was 1.04 ratio.

B16: P54AR4-83v2 T59C, NEM conjugate (designed binder)
chain: LPAPKNLVVSEVTEDSARLSWDDPWAFYESFLIQYQESEKVGEAIVLTVPGSERSYDLCGLKPGTEYTVSIYGVHNVYKDTNMRGLPLSAIFTT
modifications: NEM on Cys 59
notes: His-tagged
For B16, the figures for the “binding ratio vs parent P54AR4-83v2” value in assay [1], in assay [2] and in assay [3] were 1.04 ratio, 0.83 ratio and 0.93 ratio, respectively.

B17: P54AR4-83v2 Y72C, NEM conjugate (designed binder)
chain: LPAPKNLVVSEVTEDSARLSWDDPWAFYESFLIQYQESEKVGEAIVLTVPGSERSYDLTGLKPGTEYTVSICGVHNVYKDTNMRGLPLSAIFTT
modifications: NEM on Cys 72
notes: His-tagged
Consider B17, for which the results for the “binding ratio vs parent P54AR4-83v2” value in assay [1], in assay [2] and in assay [3] were 1 ratio, 0.93 ratio and 0.93 ratio, respectively.

B18: P54AR4-83v2 S52C, NEM conjugate (designed binder)
chain: LPAPKNLVVSEVTEDSARLSWDDPWAFYESFLIQYQESEKVGEAIVLTVPGCERSYDLTGLKPGTEYTVSIYGVHNVYKDTNMRGLPLSAIFTT
modifications: NEM on Cys 52
notes: His-tagged
Turning to B18, the “binding ratio vs parent P54AR4-83v2” value in assay [1] was 1.03 ratio; in assay [2], 0.78 ratio; in assay [3], 0.93 ratio.

B19: P54AR4-83v2 S55C, NEM conjugate (designed binder)
chain: LPAPKNLVVSEVTEDSARLSWDDPWAFYESFLIQYQESEKVGEAIVLTVPGSERCYDLTGLKPGTEYTVSIYGVHNVYKDTNMRGLPLSAIFTT
modifications: NEM on Cys 55
notes: His-tagged
B19: the “binding ratio vs parent P54AR4-83v2” value in assay [1] came out at 0 ratio; in assay [2], 0 ratio; in assay [3], 0.11 ratio.

B20: P54AR4-83v2 V77C, NEM conjugate (designed binder)
chain: LPAPKNLVVSEVTEDSARLSWDDPWAFYESFLIQYQESEKVGEAIVLTVPGSERSYDLTGLKPGTEYTVSIYGVHNCYKDTNMRGLPLSAIFTT
modifications: NEM on Cys 77
notes: His-tagged
As for B20, the “binding ratio vs parent P54AR4-83v2” value in assay [1] was 0 ratio; in assay [2], 0.03 ratio; in assay [3], 0.03 ratio.

B21: P54AR4-83v2 V49C, NEM conjugate (designed binder)
chain: LPAPKNLVVSEVTEDSARLSWDDPWAFYESFLIQYQESEKVGEAIVLTCPGSERSYDLTGLKPGTEYTVSIYGVHNVYKDTNMRGLPLSAIFTT
modifications: NEM on Cys 49
notes: His-tagged
As to B21, the figures for the “binding ratio vs parent P54AR4-83v2” value in assay [1], in assay [2] and in assay [3] were 1.01 ratio, 0.96 ratio and 0.98 ratio, respectively.

B22: P54AR4-83v2 S38C, NEM conjugate (designed binder)
chain: LPAPKNLVVSEVTEDSARLSWDDPWAFYESFLIQYQECEKVGEAIVLTVPGSERSYDLTGLKPGTEYTVSIYGVHNVYKDTNMRGLPLSAIFTT
modifications: NEM on Cys 38
notes: His-tagged
For B22, the “binding ratio vs parent P54AR4-83v2” value is 0.93 ratio in assay [1], 0.8 ratio in assay [2] and 0.82 ratio in assay [3].

B23: P54AR4-83v2 V74C, NEM conjugate (designed binder)
chain: LPAPKNLVVSEVTEDSARLSWDDPWAFYESFLIQYQESEKVGEAIVLTVPGSERSYDLTGLKPGTEYTVSIYGCHNVYKDTNMRGLPLSAIFTT
modifications: NEM on Cys 74
notes: His-tagged
As to B23, the “binding ratio vs parent P54AR4-83v2” value in assay [1] worked out at 1.01 ratio; in assay [2], 0.76 ratio; in assay [3] it was 0.95 ratio.

B24: P54AR4-83v2 W25C, NEM conjugate (designed binder)
chain: LPAPKNLVVSEVTEDSARLSWDDPCAFYESFLIQYQESEKVGEAIVLTVPGSERSYDLTGLKPGTEYTVSIYGVHNVYKDTNMRGLPLSAIFTT
modifications: NEM on Cys 25
notes: His-tagged
Consider B24, for which the “binding ratio vs parent P54AR4-83v2” value is 0.64 ratio in assay [1], 0.38 ratio in assay [2] and 0.7 ratio in assay [3].

B25: 83v2cy5-mal-PEG4-MMAE (designed binder)
chain: MLPAPKNLVVSEVTEDSARLSWDDPWAFYESFLIQYQESEKVGEAIVLTVPGSERSYDLTGLKPGTEYTVSIYGVHNVYKDTNMRGLPLSAIFTTGGHHHHHHC
modifications: mal-PEG4-MMAE on the cysteine
As for B25, the “IC50 A431 (nM), cell viability” value in assay [4] is over 500 nM.

B26: 83v2cy5-mal-PEG4-VC-MMAE (designed binder)
chain: MLPAPKNLVVSEVTEDSARLSWDDPWAFYESFLIQYQESEKVGEAIVLTVPGSERSYDLTGLKPGTEYTVSIYGVHNVYKDTNMRGLPLSAIFTTGGHHHHHHC
modifications: mal-PEG4-VC-MMAE on the cysteine
In the case of B26, in assay [4], the “IC50 A431 (nM), cell viability” value amounted to 315 nM.

The values are drawn from US20170362301A1 (Janssen / Centocor, published 2017).
